Experimental data reported in publication PMC6169973, “RAIDD mutations underlie the pathogenesis of thin lissencephaly (TLIS)” (PLoS ONE, 2018).

B1: RAIDD DD (94-199), wild type (domain or fragment)
chain: not shown
notes: RAIDD (RIP-associated Ich-1/Ced-3 homologous protein with a death domain), death domain, residues 94-199; also called RD-DD; RAIDD death domain; source: E. coli BL21 (DE3) RILP, purified (Ni-NTA, size exclusion S-200)
B2: PIDD DD (777-883) (domain or fragment, UniProt Q9HB75 777-883, looked up)
chain: LNLGDAETGFLTQSNLLSVAGRLGLDWPAVALHLGVSYREVQRIRHEFRDDLDEQIRHMLFSWAERQAGQPGAVGLLVQALEQSDRQDVAEEVRAVLELGRRKYQDS
notes: PIDD (p53-induced protein with a death domain), death domain, residues 777-883; also called PD-DD; PIDD death domain; source: E. coli BL21 (DE3) RILP, purified (Ni-NTA, size exclusion S-200)

How the values were obtained:
PIDD DD (777-883) = molecular target: B2; experiment: SEC; RAIDD (full length, DD or mutant) mixed with a molar excess of PIDD DD, 30 min at room temperature; Superdex 200 HR 10/30 in 20 mM Tris-HCl pH 8.0, 150 mM NaCl; fractions on SDS-PAGE, Coomassie; conditions: both partners purified
[1] = molecular target: T1, full-length RAIDD (1-199), wild type (UniProt P78560 1-199); experiment: as above; conditions: both partners purified
T1 construct: RAIDD, full length, residues 1-199 (CARD and DD); also called RD; wild-type full-length RAIDD; source: E. coli BL21 (DE3) RILP, purified (Ni-NTA, size exclusion S-200)
T1 sequence (P78560 whole entry, the tested form may be a part): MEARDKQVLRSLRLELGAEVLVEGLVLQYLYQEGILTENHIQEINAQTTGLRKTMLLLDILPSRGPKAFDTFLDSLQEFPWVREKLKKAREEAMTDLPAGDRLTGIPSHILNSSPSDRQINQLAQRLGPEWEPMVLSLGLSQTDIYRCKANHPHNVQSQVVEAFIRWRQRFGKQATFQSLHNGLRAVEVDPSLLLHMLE

Binder	binding result (PIDD DD (777-883))	binding result [1]
B1	binds	–
B2	–	binds
